Experiments:
[1] = parameters: species or system C57BL/6J mice; settings: mouse, in vivo; SD
Experimental: Pharmacokinetics. Serial blood samples were collected following sI-MN application or SC insulin dosing. Plasma insulin concentrations were quantified by ELISA (4-PL; appropriate plasma dilution; internal QCs and spike-recovery within 80–120%). Noncompartmental analysis (NCA) yielded Cmax, tmax, and AUC over the reported interval, and terminal half-life (t1/2). […] AUCs were calculated by the linear-up/linear-down trapezoidal rule.
patches (related to Section 2.2.3).
Mechanical Robustness — Single-Needle Fracture
compression at constant speed. Fracture point was identified from force–
displacement traces. Per-array mean ± SD and overall CV were computed.
ICC(1,1) (related to Section 2.2.4).
ELISA Validation — Patch Extract Matrices
ELISA sample diluent to fall within the validated range. For in-vitro release,
corner wells avoided to minimize edge effects. Carryover was checked by
placing an LLOQ well immediately after the ULOQ well. Matrix effect and
120% recovery and CV ≤15% (≤20% at LLOQ). Content (IU per patch) was
human insulin (≈28.8 IU·mg⁻¹). All ELISA-derived masses were converted
accordingly before IU normalizatio. Uniformity was summarized as mean ±
ELISA Validation — Mouse Plasma (PK)
inverted, and kept on wet ice.
specified visual criterion) were excluded. Samples were diluted 1:5–1:20 in kit
Selectivity against endogenous
mouse insulin was ensured per manufacturer documentation (cross-reactivity
<0.1%) and confirmed by blank plasma < LLOQ. Stability was verified for
14 days (≥90%). PK outputs per animal included observed Cmax, Tmax, AUC₀–
regression), and t½ = ln2/λz.
ICP–MS Validation — Boron Leaching
Ventures (Christiansburg, VA, USA). External calibration used 0–100 µg·L⁻¹
standards (matrix-matched), with R² ≥ 0.99 required. A rinse of 2% HNO₃ for
daily for five consecutive days.
dose and prior to glycemic assessments as applicable. Fasting plasma glucose
were excluded per pre-specified rules. All animal procedures complied with
and conformed to ARRIVE guidelines.

[2] = system: STZ-diabetic mice; test: Baseline efficacy 0–12 h: plasma glucose and plasma insulin; format: in vivo, C57BL/6J mice; settings: basal monitoring, mean ± SD, n = 8
Experimental: (§1) Male C57BL/6J mice, 56–70 days old (8–10 weeks) and weighing 23–28 g at allocation, were housed under standard conditions with ad libitum access to food and water. Type 1 diabetes was induced by intraperitoneal streptozotocin (55 mg kg^−1 daily for 5 days). Mice with fasting plasma glucose (FPG) > 300 mg·dL^−1 were considered diabetic and enrolled. […] Animals were randomized to groups with allocation concealment; outcome assessors were blinded to treatment. […] Animals were housed at 22 ± 2 °C, 45–65% RH under a 12 h light/12 h dark cycle with environmental enrichment (nesting material), standard chow and water ad libitum. For blood sampling and patch application, brief isoflurane anesthesia was used (Materials). Humane endpoints: >20% body-weight loss from baseline, persistent FPG > 600 mg·dL^−1 despite treatment, or any severe distress prompted euthanasia per IACUC policy.
Treatments and Dosing. […] The nominal dose was calculated based on this area ratio:[Nominal IU per mini-patch] = (Mean IU per full patch) × (mini-patch area/full patch active area).
Baseline Efficacy (0–12/24 h). Plasma glucose levels (PGLs) were monitored for 12–24 h using a glucometer. Plasma insulin was quantified by ELISA at selected timepoints. The area under the curve (AUC0–12/24) was calculated to assess overall glycemic control.

[3] = system: STZ-diabetic mice; parameters: species or system C57BL/6J mice; settings: mouse, in vivo; SD
Experimental: as §1
Patches were applied to a shaved dorsal skin site and secured with a semi-occlusive film. […] The nominal dose was calculated based on this area ratio:[Nominal IU per mini-patch] = (Mean IU per full patch) × (mini-patch area/full patch active area).
An intravenous glucose-tolerance test (IVGTT) was performed 2–4 h post-application by administering an IV bolus of dextrose (0.7 g·kg^−1). PGL and plasma insulin were monitored for 0–60 min post-bolus.

[4] = system: STZ-diabetic mice; test: Intraperitoneal glucose-tolerance test (IPGTT); format: in vivo, C57BL/6J mice; settings: 30 min after 1.5 g·kg^−1 glucose i.p., 4 h post-treatment, mean ± SD, n = 8
Experimental: Male C57BL/6J mice, 56–70 days old (8–10 weeks) and weighing 23–28 g at allocation, were housed under standard conditions with ad libitum access to food and water. Type 1 diabetes was induced by intraperitoneal streptozotocin (55 mg kg^−1 daily for 5 days). Mice with fasting plasma glucose (FPG) > 300 mg·dL^−1 were considered diabetic and enrolled. […] Animals were randomized to groups with allocation concealment; outcome assessors were blinded to treatment. […] For blood sampling and patch application, brief isoflurane anesthesia was used (Materials).
Patches were applied to a shaved dorsal skin site and secured with a semi-occlusive film. The nominal dose for mouse studies (0.05–0.20 IU) was delivered using “mini-patches” (Ø 3–5 mm) punched from larger, fully characterized patches (Ø 15 mm). The nominal dose was calculated based on this area ratio:[Nominal IU per mini-patch] = (Mean IU per full patch) × (mini-patch area/full patch active area).
IPGTT. An intraperitoneal glucose-tolerance test (IPGTT) was performed 4 h post-application by administering an IP bolus of glucose (1.5 g·kg^−1). PGL and plasma insulin were monitored for 0–120 min, and the AUC0–120 was calculated.

[5] = mouse, in vivo; SD
Experimental: Terminal blood (or blood under anesthesia where permitted) was collected into
serum tubes, allowed to clot for 20–30 min at room temperature, and
centrifuged at 2,000 g for 10 min. Serum was analyzed the same day on an
automated clinical chemistry analyzer available in our facility (reagent kits
from Thermo Fisher Scientific, Waltham, MA, USA, or Roche Diagnostics,
Indianapolis, IN, USA, as applicable), or stored at 4 °C for <6 h before testing.
Laboratory reference intervals for C57BL/6J were considered during
interpretation: AST 35–80 U·L⁻¹, ALT 25–60 U·L⁻¹, urea 5–9 mmol·L⁻¹, and
creatinine 25–60 µmol·L⁻¹ (ranges may vary by laboratory). Hemolyzed
samples were excluded per pre-specified criteria. Statistical analyses followed
the main text (normality by Shapiro–Wilk, variance homogeneity by Levene,
one-way ANOVA with Tukey post hoc; α = 0.05).

In the case of recombinant human insulin [SC insulin], the “AUC0–12h” value [1] is reported as 192 ± 11 ng·h/mL, the Tmax [1] is reported as 1.0 ± 0.1 h and the “t½ (terminal half-life)” value [1] is reported as 2.64 ± 0.12 h. The “Plasma glucose (PGL)” value ([2]; 0 h, dose-matched SC vs patch (nominal 0.05–0.20 IU)) was 344 ± 16 mg/dL, the “Plasma glucose (PGL)” value ([2]; 12 h, dose-matched) was 220 ± 30 mg/dL and the IVGTT plasma insulin [3] was 5.4 ± 0.4 ng/mL. The “IPGTT peak glycemia (maximal group mean at 30 min)” value [4] was 272 ± 17 mg/dL, the AST [5] was 48.2 ± 6.7 U·L⁻¹ and the Creatinine [5] was 39.4 ± 2.5 µmol/L.

Reference: article PMC12737151, “Systematic Development and Characterization of Enzyme-Free, Borax-Crosslinked Microneedles for Glucose-Responsive Insulin Delivery and In Vivo Glycemic Mitigation” (Pharmaceutics, 2025)
